Measurements taken from PMC10645843, “Fungal secondary metabolism is governed by an RNA-binding protein CsdA/RsdA complex” (Nature Communications, 2023).

T1: GST-CsdA (Pestalotiopsis fici CGMCC3.15140, UniProt W3WSJ8 1-634)
T1 sequence: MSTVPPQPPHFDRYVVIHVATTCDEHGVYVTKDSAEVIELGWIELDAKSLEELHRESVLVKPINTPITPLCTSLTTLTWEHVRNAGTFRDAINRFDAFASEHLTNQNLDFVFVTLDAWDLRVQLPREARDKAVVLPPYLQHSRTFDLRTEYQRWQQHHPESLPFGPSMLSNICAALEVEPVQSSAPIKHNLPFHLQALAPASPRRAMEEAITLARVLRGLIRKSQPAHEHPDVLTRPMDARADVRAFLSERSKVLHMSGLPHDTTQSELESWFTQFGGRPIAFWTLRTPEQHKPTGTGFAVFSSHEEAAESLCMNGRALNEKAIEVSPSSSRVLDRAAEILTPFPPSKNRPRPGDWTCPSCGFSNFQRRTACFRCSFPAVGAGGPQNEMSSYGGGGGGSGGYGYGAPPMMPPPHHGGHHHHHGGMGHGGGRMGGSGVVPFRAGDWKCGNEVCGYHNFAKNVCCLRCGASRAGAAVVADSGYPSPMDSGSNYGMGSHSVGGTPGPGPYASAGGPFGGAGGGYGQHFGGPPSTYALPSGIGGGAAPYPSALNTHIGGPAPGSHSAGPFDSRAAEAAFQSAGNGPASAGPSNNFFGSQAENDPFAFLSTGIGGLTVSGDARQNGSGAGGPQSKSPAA

T2: RsdA-His (PFICI_10532), recombinant (Pestalotiopsis fici, UniProt W3WX91 1-730)
T2 construct: RsdA, regulator of secondary metabolism and development, Pestalotiopsis fici, locus PFICI_10532; open reading frame amplified from P. fici cDNA; RsdA-His printed as 80.4 kDa; Printed as RsdA-His; vector pET28a (His6-tag); also called PfRsdA; RsdA-His protein; source: E. coli BL21 (plasmid pYZS42, pET28a), purified (Ni-NTA resin)
T2 sequence (looked up): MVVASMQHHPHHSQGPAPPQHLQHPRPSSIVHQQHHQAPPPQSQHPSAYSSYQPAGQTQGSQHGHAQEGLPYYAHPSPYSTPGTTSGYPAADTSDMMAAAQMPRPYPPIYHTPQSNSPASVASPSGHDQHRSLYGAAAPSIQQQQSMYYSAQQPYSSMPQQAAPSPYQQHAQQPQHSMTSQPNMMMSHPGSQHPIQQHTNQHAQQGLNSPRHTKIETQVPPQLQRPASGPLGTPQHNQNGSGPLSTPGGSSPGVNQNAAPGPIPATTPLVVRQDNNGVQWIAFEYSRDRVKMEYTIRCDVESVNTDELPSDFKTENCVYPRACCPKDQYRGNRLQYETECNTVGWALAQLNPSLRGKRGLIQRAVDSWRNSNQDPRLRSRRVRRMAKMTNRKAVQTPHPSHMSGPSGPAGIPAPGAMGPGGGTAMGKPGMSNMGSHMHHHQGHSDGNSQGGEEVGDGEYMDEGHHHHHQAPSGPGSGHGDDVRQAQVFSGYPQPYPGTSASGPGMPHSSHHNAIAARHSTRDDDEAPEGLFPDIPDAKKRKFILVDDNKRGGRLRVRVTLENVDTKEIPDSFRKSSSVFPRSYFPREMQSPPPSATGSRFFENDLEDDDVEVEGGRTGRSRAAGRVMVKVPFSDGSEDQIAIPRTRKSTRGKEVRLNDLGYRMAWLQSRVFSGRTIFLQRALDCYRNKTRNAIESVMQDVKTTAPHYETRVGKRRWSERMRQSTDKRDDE

B1: GST-CsdA (PFICI_10709), recombinant (natural protein, Pestalotiopsis fici, UniProt W3WSJ8 1-634, looked up)
chain: T1 sequence
notes: open reading frame amplified from P. fici cDNA; CsdA said to contain 730 amino acids; GST-CsdA printed as 93.6 kDa; Printed as GST-CsdA; vector pGEX-4T (GST-tag); also called PfCsdA; GST-CsdA protein; source: E. coli BL21 (plasmid pYSZL6, pGEX-4T), purified (GST-tag resin)

Key:
GST-CsdA [1] = target: T1, GST-CsdA; assay: EMSA; EMSA: Beyotime EMSA kit buffer, 20 min at 25 C, 6% polyacrylamide gel; ITC: 200 uM RNA into 50 uM CsdA, 25 C, buffer not stated (protein elution buffer 50 mM Tris, 150 mM NaCl, 10 mM GSH, pH 8.0); conditions: protein: recombinant; tags: GST (N-terminal, pGEX-4T; pYSZL6); label: biotin
[2] = target: T2, RsdA-His (PFICI_10532), recombinant; assay: pull-down; His pull-down: RsdA-His (or RsdA^ΔC-terminal-His) held on Ni-NTA resin, purified GST-CsdA or its deletion forms added, overnight at 4 °C; binding buffer 50 mM Tris, 250 mM NaCl, 0.2% glycerol, 5 mM DTT, 0.6% Triton X-100, 1 mM PMSF, pH 7.5; wash with 1% Triton X-100; western blot with anti-His and anti-GST; conditions: both partners purified
GST-CsdA [3] = target: T1, GST-CsdA; assay: ITC; EMSA: Beyotime EMSA kit buffer, 20 min at 25 C, 6% polyacrylamide gel; ITC: 200 uM RNA into 50 uM CsdA, 25 C, buffer not stated (protein elution buffer 50 mM Tris, 150 mM NaCl, 10 mM GSH, pH 8.0); conditions: protein: recombinant; tags: GST (N-terminal, pGEX-4T; pYSZL6)

| Binder | Kd (GST-CsdA [3]) | other results |
| --- | --- | --- |
| CCAGGGAGGUGAAGAAGUCGGUAUGUUUCACCAGAUGUGAU (ssRNA) [rsdA intron 2 5' splice site RNA (EMSA probe)] | – | binding result (GST-CsdA [1]): binds |
| B1 | – | binding result [2]: binds |
| GUCGGUAU (ssRNA) [1xGUCGGUAU RNA (ITC)] | 19.7 ± 3.67 µM | – |
| GUCGGUAUCGUCGGUAUGGUCGGUAUUGUCGGUAU (ssRNA) [4xGUCGGUAU RNA (ITC)] | 10.5 ± 5.12 µM | – |
